From patent US20240132578A1

Experiments:
Experiment in all cases: cell-based or functional assay
[1] = target: HIV-1 envelope glycoprotein (Env) of isolate 92BR020, on pseudovirus (HIV-1)
[2] = target: HIV-1 JR-CSF Env H330A (HIV-1 isolate JR-CSF) (UniProt P20871)
[3] = target: HIV-1 JR-CSF Env I323A (HIV-1 (isolate JR-CSF, clade B)) (UniProt P20871)
[4] = target: HIV-1 Env of isolate MGRM-F1-014 (pseudovirus) (HIV-1)
[5] = target: HIV-1 JR-CSF Env R327A (HIV-1 isolate JR-CSF) (UniProt P20871)
[6] = target: HIV-1 JR-CSF Env I309A (HIV-1 (isolate JR-CSF, clade B)) (UniProt P20871)
[7] = target: HIV-1 JR-CSF Env K305A (HIV-1 (isolate JR-CSF, clade B)) (UniProt P20871)
[8] = target: HIV-1 JR-CSF Env T202A (HIV-1 (isolate JR-CSF)) (UniProt P20871)
[9] = target: HIV-1 envelope glycoprotein (Env) of isolate 92WR026, subtype A (HIV-1)
[10] = target: HIV-1 JR-CSF Env D325A (HIV-1 isolate JR-CSF) (UniProt P20871)
[11] = target: HIV-1 JR-CSF Env N332A (HIV-1 isolate JR-CSF) (UniProt P20871)
[12] = target: HIV-1 JR-CSF Env T388A (HIV-1 isolate JR-CSF) (UniProt P20871)
[13] = target: HIV-1 JR-CSF Env N295A (HIV-1 (isolate JR-CSF, clade B)) (UniProt P20871)
[14] = target: HIV-1 envelope glycoprotein (Env) of isolate MGRM-Chronic-B-010, on pseudovirus (HIV-1)
[15] = target: HIV-1 MGRM-D-001 Env (HIV-1)
[16] = target: HIV-1 JR-CSF Env T341A (HIV-1 isolate JR-CSF) (UniProt P20871)
[17] = target: HIV-1 JR-CSF Env F317A (HIV-1 (isolate JR-CSF, clade B)) (UniProt P20871)
HIV-1 APV13 Env (HIV-1) = target: HIV-1 APV13 Env (HIV-1)
HIV-1 JRFL Env (HIV-1) = target: HIV-1 JRFL Env (HIV-1)
[18] = target: HIV-1 CMU02 envelope glycoprotein (Env) on pseudovirus (HIV-1)
[19] = target: HIV-1 93IN905 envelope glycoprotein (Env) on pseudovirus (HIV-1)
[20] = target: HIV-1 APV6 envelope glycoprotein (Env) on pseudovirus (HIV-1)
[21] = target: HIV-1 92UG024 envelope glycoprotein (Env) on pseudovirus (HIV-1)
[22] = target: HIV-1 JRFL envelope glycoprotein (Env) on pseudovirus (HIV-1)
[23] = target: HIV-1 92TH021 envelope glycoprotein (Env) on pseudovirus (HIV-1)
[24] = target: HIV-1 MGRM-C-026 envelope glycoprotein (Env) on pseudovirus (HIV-1)
[25] = target: HIV-1 APV13 envelope glycoprotein (Env) on pseudovirus (HIV-1)
[26] = target: HIV-1 MGRM-C-027 envelope glycoprotein (Env) on pseudovirus (HIV-1)
[27] = target: HIV-1 93UG077 envelope glycoprotein (Env) on pseudovirus (HIV-1)
[28] = target: HIV-1 MGRM-C-028 envelope glycoprotein (Env) on pseudovirus (HIV-1)
[29] = target: HIV-1 NL43 envelope glycoprotein (Env) on pseudovirus (HIV-1)
[30] = target: HIV-1 MGRM-D-001 envelope glycoprotein (Env) on pseudovirus (HIV-1)
[31] = target: HIV-1 APV17 envelope glycoprotein (Env) on pseudovirus (HIV-1)

## 5145_B14 (PGT-127) (antibody)
[1]
  IC50, pseudovirus neutralization: 0.059 µg/mL
[2]
  Fold IC50 increase relative to wild-type: 0.5 fold
[3]
  Fold IC50 increase relative to wild-type: 4 fold
[4]
  IC50 (µg/mL), pseudovirus neutralization: > 50 µg/mL
[5]
  Fold IC50 increase relative to wild-type: 1.8 fold
[6]
  Fold IC50 increase relative to wild-type: 6 fold
[7]
  Fold IC50 increase relative to wild-type: 2.6 fold
[8]
  Fold IC50 increase relative to wild-type: 1.8 fold
[9]
  IC50, pseudovirus neutralization: 0.024 µg/mL
[10]
  Fold IC50 increase relative to wild-type: 0.93 fold
[11]
  Fold IC50 increase relative to wild-type: > 100 fold
[12]
  Fold IC50 increase relative to wild-type: 0.5 fold
[13]
  Fold IC50 increase relative to wild-type: 2.3 fold
[14]
  IC50, pseudovirus neutralization: 0.019 µg/mL

## 4858_P08 (PGT-123) (antibody)
[1]
  IC50, pseudovirus neutralization: 0.008 µg/mL
[15]
  IC50, pseudovirus neutralization: 0.215 µg/mL
[2]
  Fold IC50 increase relative to wild-type: 0.3 fold
[16]
  Fold IC50 increase relative to wild-type: 0.3 fold
[4]
  IC50 (µg/mL), pseudovirus neutralization: 0.111 µg/mL
[17]
  Fold IC50 increase relative to wild-type: 3.1 fold
[6]
  Fold IC50 increase relative to wild-type: 1.6 fold
HIV-1 APV13 Env (HIV-1)
  IC50, pseudovirus neutralization: 0.222 µg/mL
[9]
  IC50, pseudovirus neutralization: 0.012 µg/mL
[10]
  Fold IC50 increase relative to wild-type: 64 fold
[11]
  Fold IC50 increase relative to wild-type: > 200 fold
HIV-1 JRFL Env (HIV-1)
  IC50, pseudovirus neutralization: 0.0283 µg/mL
[12]
  Fold IC50 increase relative to wild-type: 0.2 fold
[14]
  IC50, pseudovirus neutralization: 0.009 µg/mL

## 5343_B08 (PGT-135) (antibody)
[18]
  Neutralization IC80: > 10 µg/mL
  Neutralization IC90: > 10 µg/mL
  Neutralization IC95: > 10 µg/mL
  neutralization IC50: > 10 µg/mL
[19]
  Neutralization IC80: 0.0648 µg/mL
  Neutralization IC90: 0.136 µg/mL
  Neutralization IC95: 0.268 µg/mL
  neutralization IC50: 0.0183 µg/mL
[2]
  Fold IC50 increase relative to wild-type: > 250 fold
[20]
  Neutralization IC80: > 10 µg/mL
  Neutralization IC90: > 10 µg/mL
  Neutralization IC95: > 10 µg/mL
  neutralization IC50: > 10 µg/mL
[21]
  Neutralization IC80: 0.054 µg/mL
  Neutralization IC90: 0.122 µg/mL
  Neutralization IC95: 0.267 µg/mL
  neutralization IC50: 0.0139 µg/mL
[22]
  Neutralization IC80: > 10 µg/mL
  Neutralization IC90: > 10 µg/mL
  Neutralization IC95: > 10 µg/mL
  neutralization IC50: > 10 µg/mL
[23]
  Neutralization IC80: > 10 µg/mL
  Neutralization IC90: > 10 µg/mL
  Neutralization IC95: > 10 µg/mL
  neutralization IC50: > 10 µg/mL
[16]
  Fold IC50 increase relative to wild-type: 0.6 fold
[24]
  Neutralization IC80: 0.0562 µg/mL
  Neutralization IC90: 0.139 µg/mL
  Neutralization IC95: 0.331 µg/mL
  neutralization IC50: 0.0123 µg/mL
[5]
  Fold IC50 increase relative to wild-type: 0.67 fold
[25]
  Neutralization IC80: > 10 µg/mL
  Neutralization IC90: > 10 µg/mL
  Neutralization IC95: > 10 µg/mL
  neutralization IC50: 0.545 µg/mL
[26]
  Neutralization IC80: > 10 µg/mL
  Neutralization IC90: > 10 µg/mL
  Neutralization IC95: > 10 µg/mL
  neutralization IC50: > 10 µg/mL
[27]
  Neutralization IC80: > 10 µg/mL
  Neutralization IC90: > 10 µg/mL
  Neutralization IC95: > 10 µg/mL
  neutralization IC50: > 10 µg/mL
[28]
  Neutralization IC80: > 10 µg/mL
  Neutralization IC90: > 10 µg/mL
  Neutralization IC95: > 10 µg/mL
  neutralization IC50: 2.16 µg/mL
[8]
  Fold IC50 increase relative to wild-type: 1.8 fold
[11]
  Fold IC50 increase relative to wild-type: > 250 fold
[29]
  Neutralization IC80: > 10 µg/mL
  Neutralization IC90: > 10 µg/mL
  Neutralization IC95: > 10 µg/mL
  neutralization IC50: 6.79 µg/mL
[30]
  Neutralization IC80: > 10 µg/mL
  Neutralization IC90: > 10 µg/mL
  Neutralization IC95: > 10 µg/mL
  neutralization IC50: > 10 µg/mL
[12]
  Fold IC50 increase relative to wild-type: 0.1 fold
[13]
  Fold IC50 increase relative to wild-type: > 18 fold
[31]
  Neutralization IC80: > 10 µg/mL
  Neutralization IC90: > 10 µg/mL
  Neutralization IC95: > 10 µg/mL
  neutralization IC50: > 10 µg/mL
